# According to publication PMC7404307:
# Biological target: ternary troponin complex I-T-C (cTnI-cTnT-cTnC) (UniProt P19429+P45379+P63316)
# Assay: SPR imaging
# Details: L-DNA (all L-2'-deoxyribose); SPRi: PBS (10 mM phosphate, 137 mM NaCl, 2.7 mM KCl, pH 7.4), 25 C; filter binding: PBS, RT, 1 h; AlphaLisa: selection buffer (PBS, 1 mg/mL BSA, 0.01 ug/mL …)
row,Sequence,Kd [nM]
1,CAGTGAGTGATGGTGAGGGCTTAGTTCGCCGCTCATGCCGAATCTCCTGTATAAATACCCACACTGTCCATACACG [A6 spiegelmer],0.54
2,CAGTGAGTGATGGTGAGGGTGAATCGGTGTCGACTATTAAATTAAGTTGTGGTTGTTCCCACACTGTCCATACACG [C6 spiegelmer],0.305
